Results: IntAct's records for PubMed 9891048

B1: DNA damage checkpoint control protein RAD17 (Saccharomyces cerevisiae), P48581 (parent)
chain: MRINSELANKFSASTVHLEHITTALSCLTPFGSKDDVLIFIDADGLSFVRENNHVIKIQLLLSRELFMSYSYRNETEDHMKLCVKINHILDSVSVMNRNSDDIVECTLSYDGHGSPFVLIFEDSFISERVEYSTYLIKDFDTNGLELDRERISFEAIIKGEALHSALKDLKEIGCKECYVYAKTEANDENVFALISKSQLGFSKIKLPSNRSILEKLQVFDGDSTTVIDGFAVIGFFDFTSFDKIRKSTKIASKVLFRMDVHGVLSVNILSQTDDVIITDTTRPSNNRPGSIRQLQLPKDYPGIVIEVCMLEKESIDEAAQTEIELLMETNELGNRNSFKKSTIRKRYGTDKGNETSNDNLLQLNGKKIKLPSEEENNKNRESEDEENHCKYPTKDIPIFF
partner: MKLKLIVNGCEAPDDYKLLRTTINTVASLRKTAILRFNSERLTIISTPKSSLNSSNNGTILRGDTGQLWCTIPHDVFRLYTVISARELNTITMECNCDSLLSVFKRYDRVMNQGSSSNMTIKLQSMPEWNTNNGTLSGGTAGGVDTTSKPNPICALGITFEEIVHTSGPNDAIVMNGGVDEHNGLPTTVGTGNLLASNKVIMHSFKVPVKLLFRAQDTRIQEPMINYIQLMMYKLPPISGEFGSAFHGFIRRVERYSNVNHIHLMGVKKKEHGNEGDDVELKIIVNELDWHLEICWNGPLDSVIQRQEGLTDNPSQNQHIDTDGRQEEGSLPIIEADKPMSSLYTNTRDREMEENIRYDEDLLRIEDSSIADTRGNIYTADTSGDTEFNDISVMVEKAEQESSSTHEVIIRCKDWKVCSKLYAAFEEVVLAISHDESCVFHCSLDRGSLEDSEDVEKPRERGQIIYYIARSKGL

Variants of: B1
Settings: with mec3_yeast MEC3, Q02574
For E128K, the “effect of a mutation on the interaction” value was “decreasing interaction”.
